Test: soluble on expression in E. coli; label from the status in PepcDB or PDB records

Sequence | soluble on expression in E. coli
MSLIPKIKDISVIECQPAGVRLTVVKITTDQDGLYGYGCATFTQRADLVKPAVERYLKPFLMGKTTDRIEDIWQSCYDSSYWKNGPVLNNAISGIDQALWDIKGRQAGLPVYQLAGGKCREAADCYAHADGADFPNVVEAAKRYMAQGFRHVRVQIGVPGMAGYGSSRGDTKVQALHSKPVFEPAYYVRRALKLFEVCRTELGEEIELLHDMHERVSPNQAVQFVKDAEKFKMFFMEDPLSPEDIAYFRQIRQQCATPIAMGELFNSPHEWTPLISERLIDYIRVHVSQAGGFTPARKIAILGETFGVKTAWHGPGDVSPIGHMANVTLDLVSYNFGIQEYSPFNGRTQEIFSGCPVMKDGYLYASEKPGWGIEVDEKLAAKAPFTDREGHHHHHH | not soluble
MSLIQEYVPGKQVTLAHIIASPNKEIYTKLGLPEGTSNALGILTITPSEAAIIAVDIATKSGDIQIGFIDRFSGSVVISGDVSSVEAALQAVIEGLQQILNFSVTCKITRTEGGSHHHHHH | soluble
MSLISVIMPVYNCEKYLEESIESILKQTYRDFEFIIVNDGSNDKSIDIINKYANDDNRIVVVSRDNNMGMVYSLNEGIDRAKGSYVARMDADDIALPERFERQIEYLNKNKDVDILACKVEAFGDVSREQKLEREHWYNVDLNNSESIESLFLENCYIAHPSVMMKMSVLKALGGYNLNYKRTEDYNLWLRAIAKGYKIAMLEEKLMKIRLHNDSKIHRDAEGFSSIRDIIQSRLEYVKEKLKLKDFSYVIWGASNGGKIAYEKIKEVFPNAKLNGYIDKFKTGKFEGVDIFYPEDLSKMKVDYVFIATLPGCKEAKGILTKNNFVPIKDFLVLCEGHHHHHH | soluble
MSLIVLGLEGTAHTISCGIIDESRILAMESSMYRPKTGGIRPLDAAVHHSEVIDTVISRALEKAKISIHDIDLIGFSMGPGLAPSLRVTATAARTISVLTGKPIIGVNHPLGHIEIGRRVTGAIDPVMLYVSGGNTQVIAHVNGRYRVLGETLDIGIGNMIDKFAREAGIPFPGGPEIEKLAMKGTKLLDLPYSVKGMDTAFSGILTAALQYLKTGQAIEDISYSIQETAFAMLVEVLERALYVSGKDEILMAGGVALNRRLRDMVTNMAREAGIRSYLTDREYCMDNGIMIAQAALLMYKSGVRMSVEETAVNPRFRIDEVDAPWITDASRKDYGKAGAESRIEEVSFHGRPAIRKVRISKSYRNSDLDKKIRYERMRNEFTILRKLKEAGVNSPVVYDFDPFSMSITMQKIPGRMMSAELNEGRTDFLNELGIMIAKMHRAGIAHGDLTVNNIIVNDSVFIIDPSMGKVNAEIEDMAVDIYALEDSIKGLGLDSGSVIGQMLKSYRNNFNLADDVLETVSAIRRRHRYVEGHHHHHH | not soluble
MSLIYFFMVDAVELSRKYEGKIEIYPKVPITSYNDFALIYTPGVAEVSKAIYKDPDKSFELTSRWNTIAVVTDGTRVLGLGNIGPTAAMPVMEGKSLLFKYLGGVDAIPLPINVKSADEFTNVVKALETSFGGINLEDIESPKCFYILEKLQSMLNIPVWHDDQQGTAAAILAGLINAMILTNKDPKESKVVFYGAGASNIAAARILAKYGFKYENIVMIDSKGPLYADREDVDHLMLHHKWKYELAIKTNKWEAKEIKDAFSGADAVVAASTPGPNVIKKEWISLMNKEAIVFALANPVPEIWPQDAKEAGAKIVATGRSDFPNQVNNSLIFPAIFRGVLDSRAKAITDEMTIAASEALAKYARDRGINENYIIPRMDEWEAFYEEAAAVASKAVELGLARVKKSREEFREIAKERIIRARKIMNLVISTWSPEGHHHHHH | not soluble
MSLIYLRKANERGHANHGWLDSWHTFSFANYYDPNFMGFSALRVINDDVIEAGQGFGTHPHKDMEILTYVLEGTVEHQDSMGNKEQVPAGEFQIMSAGTGIRHSEYNPSSTERLHLYQIWIMPEENGITPRYEQRRFDAVQGKQLVLSPDARDGSLKVHQDMELYRWALLKDEQSVHQIAAERRVWIQVVKGNVTINGVKASTSDGLAIWDEQAISIHADSDSEVLLFDLPPVEGGSHHHHHH | soluble
MSLKAEFLTPVVTIFDEEGNLDKEGNKKVYDHLIDGGVDGLVIMGSTGEFFNMSMDMQKELIDLVTSHVNKRVKVFIGTSRMCINESIELSNYAHNSGADGVMIISPYYFSLDDDSIELFYSEIAKNTEAEIYLYNYPDRTGYDLSPELTLRLARKHKNIVGYKDTVTLMGHTRDLINTMKIEFPEFKVYSGYDENFIHNLMSGGAGCIGGLSNLIPEVCSKWAEAYNNRDMEKVIEIQKYINKAMDFYLITNPFIPAMKKAMNIRGLQISDYMTAPFVKPNEKQVCEIKKLMNELNIEGHHHHHH | soluble
MSLKAIAKLRDHCIVCGYGRIGSVVAKELMEEGVALVVIENDPAMIEALETEGILHLAGDATNDELLQAAGIERARALVAALSLDSANVYVVLSAHQINPSMTIVARASEPSHIGKLKLAGADRVFLPHHLGGLRMAQSILRPTVTSFIELAHTRSDLSIQMEELEIGDDSVLVGKTLIESGIRPQYNLIIIGVKRPDGTMHFNPESTYTLQARDTLIAVGFPENFKQFQEILEGHHHHHH | soluble
MSLKAIGFEQPFKLSDGNLFKTFNLDIPEPKVHEILVKIQSISVNPVDTKQRLMDVSKAPRVLGFDAIGVVESVGNEVTMFNQGDIVYYSGSPDQNGSNAEYQLINERLVAKAPKNISAEQAVSLPLTGITAYETLFDVFGISRNRNENEGKTLLIINGAGGVGSIATQIAKAYGLRVITTASRNETIEWTKKMGADIVLNHKESLLNQFKTQGIELVDYVFCTFNTDMYYDDMIQLVKPRGHIATIVAFENDQDLNALKPKSLSFSHEFMFARPLNQTDDMIKHHEYLEDITNKVEQNIYQPTTTKVIEGLTTENIYQAHQILESNTMIGKLVINLNEGHHHHHH | soluble
MSLKAIQFDLSIPKYALSKAMGKMNSSLYVESPFSCLQLRDVEKPALPNDHWVEIKVKYGGICGSDLNLIFLNDSPATSPFVSFPFTLGHEMVGTISKARKSVTNLQVGQRVVIDPLLSCEVRGITPVCSECANGNYNLCHHMNDGDIAPGLLTGTCKDTGGSWGRYLVAHQSQVISLPSSVDDDNGVLVEPFACALHAVLQNRPKPSDTVFVIGSGVIGICVIAAIRALEIPCKIVTLAKHPFQAELAKQFGADEIVFLSRKRDYVTAVAESFNANVLHPVFGEPIVHGGADIVYECVGNRKSLHDSLRFARKGGKVVLIGLASFIDNLDMTMIWLNELEVKGSFTYGMEDWQGGKKRTLQIAVDLIADGKVDLSPLITHRFPLEAYREALATAANKKKGQTMKVVFEEGHHHHHH | not soluble
MSLKALGLSKSTYYHWKHYQTSRHDKQDTILKSQIFEIWKNNYKAYGYPRITIAMRRLGVVIGPNRVYRLMQELGIRSLMGRRFKKPGTHVDYSQRPNLIKNHPIGTIWRADITYLELRPGTWVYLSTIFDQASKQIIAFNIGKEMASKLIIKTLLQALSRASKPTFLHSDMGSQYTSIAYEGLLKRHLIRHSYSKQGYPYDNGPLEAFHSLLKREFIFQTRFTSFEDLVLRVENYINWYNTERIRINEGHHHHHH | not soluble
MSLKAVSEADIQAALKEGGTITVWAWEPTLKQVATDFEKEHPGVKVDLVNAGTNKDQYTALQNAISAKKGVPDVAQIEYYAMGQYALTKQLTDLKSFGADKLSAQFSPGPWNGVKAGSDGVYALPMDSGPMALFYNKKVFDKYDIKVPTTWAEYLDAARDLHKADPKAYITADNGDAGFATSMLWQAGSRPYTVDGTKVKIDFSDQGAKTFTETWQQLIDEKLLASVPAWTDEWYKGLGDGSIATLATGAWMPANLESGAKSASGDWRVAPMPQWKAGDKVSAENGGSALALPELGKNEALAYAFVEYANAGDGVQTRLKNGAFPATTADLQSTRFQDTAFPYFGGQKANKIFAESAADVPDDWSYLPYQVYANSVFNDTVGKAYVSGTTLAEGLESWQEASVKYDEEQGLPSRRKGIITITTDPNSSSVDKLAAALEHHHHHH | soluble
MSLKGGEYLETAAKVDVVVVDKTGTLTTGRPELTDVEVIEPAYSQGEVLELAARAETASEHPLADAIIRGAQDRGLSTTLVEAAENITGRGIIANVDGQAVAVGSAELLDHEPDSTRILELNAEGKTAMFVGVNGHAIGIVAVADAVRSDSASAIESLHKAGIQVVMATGDAHRVAQNVASKLGVDEVYSELLPEQKLELVRDLQAAGKTVAMVGDGVNDTPALAAADIGVAMGVAGSPAAIETADIALMADRLPRLAHAVTLAKRTVRTMREGHHHHHH | soluble
MSLKIIDFRLRPPAMGFLNARIYTRPDIRNRFTRQLGFEPAPSAEEKSLELMFEEMAAAGIEQGVCVGRNSSVLGSVSNADVAAVAKAYPDKFHPVGSIEAATRKEAMAQMQEILDLGIRIVNLEPGVWATPMHVDDRRLYPLYAFCEDNGIPVIMMTGGNAGPDITYTNPEHIDRVLGDFPDLTVVSSHGNWPWVQEIIHVAFRRPNLYLSPDMYLYNLPGHADFIQAANSFLADRMLFGTAYPMCPLKEYTEWFLTLPIKPDAMEKILHGNAERLLAQAGREGHHHHHH | soluble
MSLKIIIAPAKIMKLDRDSFPVQSTPEFLKKTRILEKFLKSRTRDQLETLWHASDKVVEQSLFQLKNMDLDTNLTPAILAFSGIQYQYMAPDLFTQPALDYIQKNLRILSGFYGMLRPFDGICPYRLELNTKMVGFRDYSLYHFWDEDIANSLFKEDQVVINLASKQYMRLVKPYLNSARRMITVDFQELKNDKWKTVGVHAKMARGEMVRFMAEKQIKNPADLRDFHDFDFQFVPEVSSDDHYIFRTDFDFTRHEGHHHHHH | soluble
MSLKILGIETSCDETGVAIYDEEKGLIANQLYTQIALHADYGGVVPELASRDHIRKTAPLIKAALEEANLTASDIDGIAYTSGPGLVGALLVGATIARSLAYAWNVPAIGVHHMEGHLLAPMLDDNSPHFPFVALLVSGGHTQLVRVDGVGKYEVIGESIDDAAGEAFDKTAKLLGLDYPGGAALSRLAEKGTPNRFTFPRPMTDRAGLDFSFSGLKTFAANTVNQAIKNEGELIEQTKADIAYAFQDAVVDTLAIKCKRALKETGYKRLVIAGGVSANKKLRETLAHLMQNLGGEVFYPQPQFCTDNGAMIAYTGFLRLKQGQHSDLAIDVKPRWAMAELPAIEGHHHHHH | soluble
MSLKIVNITTQVESIELKTPFKTALRQTSHVEFVRVEVECDNGFVGIGEASATKVITGEDIYIILTSIASVEELFLNLTCEEALGALHTKCAIGSSAKASLDIAFVHLLSQEAKKPLYEYFGATDKSALKSDITISLNEADVMLNDAKKAFSNGMDILKIKVGSDILHAIDIVRKIAKELPECDILVDANQAWSFENTVLFIENMLNTPIKLIEQPVEAPNLDGLKKITELSHIPILADEAVFTLKDAKKVIEEKCADMINIKLMKCGGVSKAIEILEFARNREFKCMLGSMLEGPYSINMALHLAFAYRDVIEFVDLDSPLLYKEMPKELDFVFDGCEIKPLEGHHHHHH | soluble
MSLKKIGVLGMGYVGIPAAVLFADAPCFEKVLGFQRNSKSSGYKIEMLNRGESPLKGEEPGLEELIGKVVKAGKFECTPDFSRISELDAVTLAIQTPFANPKDLEPDFSALIDGIRNVGKYLKPGMLVVLESTITPGTTEGMAKQILEEESGLKAGEDFALAHAPERVMVGRLLKNIREHDRIVGGIDEASTKRAVELYSPVLTVGQVIPMSATAAEVTKTAENTFRDLQIAAINQLALYCEAMGINVYDVRTGVDSLKGEGITRAVLWPGAGVGGHCLTKDTYHLERGVKIGRGELDYPEGADSIYVLARKVNDFMPAHMYNLTVAALERLGKKMDGSKVAMLGWAFIKDSDDARNTPSEPYRDLCLKAGASVMVHDPYVVNYPGVEISDNLEEVVRNADAIVVLAGHSAYSSLKADWAKKVSAKANPVIIDGRNVIEPDEFIGKGFVYKGIGRGDKNSHKIKEGHHHHHH | soluble
MSLKKITMIQTQKKVGRFNIYINNKYAFPVSESILIKYRLHKGQELDENLIEEIKLADDISKGYNAALNYLSYQLRTRKEVEDKLRSLDIHEDYISEIINKLIDLDLINDKNYAESYVRTMMNTSDKGPKVIKLNLSKKGIDDNIAEDALILYTDKLQVEKGVTLAEKLANRYSHDSYRNKQNKIKQSLLTKGFSYDIIDTIIQELDLIFDDEGHHHHHH | soluble

From the DeepSol protein solubility set
